These results are taken from article PMC8985225.

Test [1] has as its target Ca^2+/CaM-dependent kinase II α (CaMKIIα) holoenzyme (rodent) (UniProt P11275).
Test [2] addresses Ca^2+/CaM-dependent kinase II β (CaMKIIβ) holoenzyme (rodent) (UniProt P08413).
Chain of UniProt P08413 (P08413 whole entry): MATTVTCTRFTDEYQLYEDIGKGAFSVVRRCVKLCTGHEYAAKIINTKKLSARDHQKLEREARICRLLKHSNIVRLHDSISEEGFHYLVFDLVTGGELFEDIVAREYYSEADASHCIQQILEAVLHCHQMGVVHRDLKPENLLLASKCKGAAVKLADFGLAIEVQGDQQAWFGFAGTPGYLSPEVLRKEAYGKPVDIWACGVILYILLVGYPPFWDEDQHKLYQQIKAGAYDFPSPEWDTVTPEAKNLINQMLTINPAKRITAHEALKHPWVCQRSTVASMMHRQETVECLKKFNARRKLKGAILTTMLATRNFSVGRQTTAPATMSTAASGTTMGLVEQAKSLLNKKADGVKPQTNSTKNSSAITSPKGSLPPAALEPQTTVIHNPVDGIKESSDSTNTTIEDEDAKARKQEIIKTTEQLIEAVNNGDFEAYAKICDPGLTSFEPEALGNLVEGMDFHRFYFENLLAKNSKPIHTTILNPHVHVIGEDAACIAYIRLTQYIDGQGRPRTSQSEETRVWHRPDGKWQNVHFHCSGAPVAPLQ

Chain of UniProt P11275 (P11275 whole entry): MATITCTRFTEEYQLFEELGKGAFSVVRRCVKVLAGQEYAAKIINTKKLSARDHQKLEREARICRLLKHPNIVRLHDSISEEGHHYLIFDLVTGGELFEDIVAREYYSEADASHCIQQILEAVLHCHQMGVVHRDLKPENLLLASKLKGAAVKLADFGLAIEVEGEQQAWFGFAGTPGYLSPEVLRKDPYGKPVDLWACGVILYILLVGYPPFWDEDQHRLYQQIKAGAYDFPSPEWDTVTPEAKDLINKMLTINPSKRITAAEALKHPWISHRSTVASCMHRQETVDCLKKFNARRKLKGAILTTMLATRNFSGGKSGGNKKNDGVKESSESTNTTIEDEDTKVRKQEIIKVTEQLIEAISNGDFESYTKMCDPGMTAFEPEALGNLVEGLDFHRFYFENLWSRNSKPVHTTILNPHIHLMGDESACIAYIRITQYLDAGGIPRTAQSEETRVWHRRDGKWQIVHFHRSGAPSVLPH

With “Calmodulin (from UniProt P0DP23 1-149) (natural protein)”, the EC50 of CaM for in vitro CaMKII kinase activity (phosphorylation of syntide-2; 0.6 nM to 6 μM CaM) in test [1] was 30.1 nM; in test [2], 14.6 nM.
